Experimental data: doi:10.1101/2024.12.26.630402 (bioRxiv, 2024)

Biological target: the molecule itself
Test: cryo-EM structure

B1: large glutamate dehydrogenase of 180 kDa subunits from Mycobacterium smegmatis (mL-GDH180) (enzyme)
chain: MIRRLSVAFLSTYRGPQADAPGVTSTGPLAVAAHDDLVSDDLVAAHYRLASMRAPGETKAAVYPGDAGSGAALQIVTDQAPMLVDSVTVLLHRHGIAYTAIMNPVFRVRRGLDGELLDVRPAAEAAPGDGADECWILVPITAAADGEALTEATRLVPGILAEARQIGLDSGAMIAALHGLANDLATDLEGHFPNAERKEVAALLRWLADGHFVLLGYQQCVVGDGNAEVDPASRLGVLRLRNDVLPPLTDSDDLLVLAQATMPSYLRYGAYPYIVVVRESPGASRVIEHRFVGLFTVAAMNANALEIPLISRRVEEALAMAHRDPSHPGQLLRDIIQTIPRPELFALSSKQLLEMALAVVDLGSRRRTLLFLRADHLAHFVSCLVYLPRDRYTTAVRLEMQDILVRELGGAGIDYSARVSESPWAVVHFTVRLPEGTAADSVDTSLENESRIQDLLTEATRNWGDRMISAAAAASISPAALEHYAHAFPEDYKQAFAPQDAIADISLIEALQDDSVKLVLADTAEDRVWKLTWYLGGHSASLSELLPMLQSMGVVVLEERPFTLRRTDGLPVWIYQFKISPHPSIPHAPDAEAQRDTAQRFADAVTAIWHGRVEIDRFNELVMRAGLTWQQVVVLRAYAKYLRQAGFPYSQSHIESVLNENPHTTRSLIDLFEALFDPSQETDGRRDAQGAAAAVAADIDALVSLDTDRVLRAFANLIEATLRTNYFVARPDSARARNVLAFKLNPLVIKELPLPRPKFEIFVYSPRVEGVHLRFGFVARGGLRWSDRREDFRTEILGLVKAQAVKNAVIVPVGAKGGFVVKRPPTLTGDAAADREATRAEGVECYRLFISGLLDVTDNVDKATGAVVTPPEVVRRDGEDAYLVVAADKGTATFSDIANEVAKSYGFWLGDAFASGGSIGYDHKAMGITAKGAWESVKRHFREMGVDTQTQDFTVVGIGDMSGDVFGNGMLLSKHIRLVAAFDHRDIFLDPNPDAGRSWDERKRLFDLPRSSWADYDKSLISEGGGVYSRQQKSIPISPQVRTALGLDADVEELTPPALIKAILKAPVDLLWNGGIGTYIKAETEADADVGDRANDQIRVCGNQVRAKVIGEGGNLGVTALGRIEFDLAGGRINTDALDNSAGVDCSDHEVNIKILIDSAVTAGKVTPEERTELLLSMTDEVGELVLADNRDQNDLMGTSRANAASLLSVHARMIKDLVDNRGLNRELEALPSEKEIRRRADAGIGLTSPELATLMAHVKLALKDDVLASDLPDQEVFASRLPYYFPTRLREELHGEIRSHQLRREIITTMLVNDLVDTAGISYAYRITEDVGVGPVDAVRSYVAINAIFGIGDVWRRIRAAGDAGVPTSVTDRMTLDLRRLVDRAGRWLLNYRPQPLAVGAEINRFGAKVAALTPRMSEWLRGDDKAIVSKEAGDFASHGVPEDLAYHIATGLYQYSLLDVIDIADIVDREPDEVADTYFALMDHLGADALLTAVSRLSRDDRWHSLARLAIRDDIYGSLRALCFDVLAVGEPDENGEEKIAEWETTNSSRVTRARRTLTEIYKDGEQDLATLSVAARQIRSMTRTSGTGTTG
  stoichiometry N: 4
